According to PMC4829432, “T-box3 is a ciliary protein and regulates stability of the Gli3 transcription factor to control digit number” (eLife, 2016):
Each block holds one molecule with its values, some of them ahead of it.

B1: Kif7, endogenous mouse protein (natural protein, mouse (endogenous in E10.5 embryos), UniProt B7ZNG0 1-1348, looked up)
chain: MGLEAQRLPGAEEAPVRVALRVRPLLPKELLHGHQSCLRVEPERGRITLGRDRHFGFHVVLGEDTGQEAVYQACVQPLLEAFFEGFNATVFAYGQTGSGKTYTMGEASVASLHEDEQGIIPRAMAEAFKLIDENDLLDCLVHVSYLELYKEEFRDLLEVGTASRDIQLREDDRGNVVLCGVKEVDVEGLDEVLSLLEMGNAARHTGATHFNRLSSRSHTVFTVTLEQRGRTPSRLPRPAAGHLLVSKFHFVDLAGSERVLKTGSTGERLKESIQINSTLLALGNVISALGDPQRRGSHIPYRDSKITRILKDSLGGNAKTVMIACVSPSSSDFDETLNTLNYASRAQNIRNRATVNWHPEAERVPEEQAAGARGPPRHRSETRIIHRGRRVPCPAVGSAAVAAGLGAECARCRARTSAAYSLLRELQAEPGLPGAAARKVRDWLCAVEGERSTLSSASGPDSGIESAPAEDQAAQGTSGRKGDEGTQQLLTLQSQVARLEEENRDFLAALEDAMEQYKLQSDRLREQQEEMVELRLRLELAQPGWGAPGLLQGLPPGSFVPRPHTAPLGGAHTHMLGMMPSTCLPGEEVSSEQQVVSGKEVKAEVLAQADKLRSASSTTSEEEGEEEEEEEEEEEEPPRRTLYLRRNGISNWSQRAGLSPGSPPDRKGPEVCPEEPAAAIPAPQAVGSGKVPVQTRQAPAAMASEWRLAQAQQKIRELAINIRMKEELIGELVRTGKAAQALNRQHSQRIRELEQEAERVRAELCEGQRQLRELEGREPQDASERSRLQEFRKRVAAAQSQVQVLKEKKQATERLVSLSAQSETRLQELERNVQLMRRQQGQLQRRLREETEQKRRLETEMNKRQHRVKELELKHEQQQKILKIKTEEIAAFQRKRRSGSNGSVVSLEQQQKIEEQKKWLDQEMEKVLQQRRALEELGEELRKREVILAKKEALMQEKTGLESKRLRSSQALNEDIVRVSSRLEHLEKELSEKSGQLRQGSAQNQQQIRGEIDTLRQEKDSLLKQRLEIDSKLRQGSLLSPEEERTLFQLDEAIEALDAAIEYKNEAITCRQRVLRASASLLSQCEMNLMAKLSYLSSSETRALLCKYFDKVVTLREEQHQQQIAFSELEMQLEEQQRLVYWLEVALERQRLEMDRQLTLQQKEHEQNVQLLLQQGRDHLGEGLADSKRQYEARIHALEKELGRHMWINQELKQKLSAGSTAGQSQGCERRSLCLENRQCLGNEDGLHPAAPEPLWQSSLLEGVSRVWDESRDLVHAPLPLTWKRSSLCSEQGSSEESRVRETTEPPVGRVLPMGEVGLSWNFGPLPKPRWEPRRTSPGMIDVRKNPL
notes: Kif7, ciliary kinesin family protein, mouse, endogenous in E10.5 forelimb buds and whole embryos; source: endogenous, E10.5 mouse forelimb bud lysate or E10.5 whole embryo lysate (control or Tbx3 null)

Columns and labels:
[1] = target: Kif7, endogenous mouse protein (mouse (endogenous in E10.5 embryos)) (UniProt B7ZNG0); assay: co-IP; as a4, but lysates of Tbx3 null (Tbx3 delta-fl/delta-fl, ko) E10.5 embryos; Kif7-Gli3 co-precipitate compared with control (wt) embryos by densitometry
[2] = target: Suppressor of fused (Sufu), endogenous mouse protein (mouse (endogenous in E10.5 embryos)) (UniProt Q9Z0P7); assay: co-IP; endogenous proteins; E10.5 whole mouse embryo lysates in Dignam buffer C, control (wt) embryos; Sufu-Gli3, Sufu-Kif7 and Tbx3-Spop also assayed in Tbx3 null (Tbx3 delta-fl/delta-fl, ko) embryos, where less Sufu-Gli3 and Sufu-Kif7 co-precipitated; 5-10 ug antibody overnight at 4 C, Protein-G Dynal beads, immunoblot, densitometry
[3] = target: T1, Gli3, endogenous mouse protein as precipitated by anti-Gli3 (Gli3FL and Gli3R not told apart) (mouse (endogenous in E10.5 embryos), UniProt Q61602 1-1583); assay: co-IP; as a4, but lysates of Tbx3 null (Tbx3 delta-fl/delta-fl, ko) E10.5 embryos; Kif7-Gli3 co-precipitate compared with control (wt) embryos by densitometry; settings: partners not purified
T1 construct: Gli3 transcription factor, mouse, endogenous; Used only for the lanes in which Gli3 was the bait (IP with anti-Gli3, blot for the partner); the forms Gli3FL and Gli3R are told apart only on anti-Gli3 blots; also called endogenous Gli3; Gli3 proteins; source: endogenous, E10.5 mouse forelimb bud lysate or E10.5 whole embryo lysate (control or Tbx3 null)

[4] = target: T2, Suppressor of fused (Sufu), endogenous mouse protein (mouse (endogenous in E10.5 embryos), UniProt Q9Z0P7 1-484); assay: co-IP; endogenous proteins; E10.5 whole mouse embryo lysates in Dignam buffer C, control (wt) embryos; Sufu-Gli3, Sufu-Kif7 and Tbx3-Spop also assayed in Tbx3 null (Tbx3 delta-fl/delta-fl, ko) embryos, where less Sufu-Gli3 and Sufu-Kif7 co-precipitated; 5-10 ug antibody overnight at 4 C, Protein-G Dynal beads, immunoblot, densitometry; settings: partners not purified
T2 construct: Suppressor of fused (Sufu), mouse, endogenous in E10.5 embryos; source: endogenous, E10.5 mouse whole embryo lysate (control or Tbx3 null)
T2 sequence (looked up): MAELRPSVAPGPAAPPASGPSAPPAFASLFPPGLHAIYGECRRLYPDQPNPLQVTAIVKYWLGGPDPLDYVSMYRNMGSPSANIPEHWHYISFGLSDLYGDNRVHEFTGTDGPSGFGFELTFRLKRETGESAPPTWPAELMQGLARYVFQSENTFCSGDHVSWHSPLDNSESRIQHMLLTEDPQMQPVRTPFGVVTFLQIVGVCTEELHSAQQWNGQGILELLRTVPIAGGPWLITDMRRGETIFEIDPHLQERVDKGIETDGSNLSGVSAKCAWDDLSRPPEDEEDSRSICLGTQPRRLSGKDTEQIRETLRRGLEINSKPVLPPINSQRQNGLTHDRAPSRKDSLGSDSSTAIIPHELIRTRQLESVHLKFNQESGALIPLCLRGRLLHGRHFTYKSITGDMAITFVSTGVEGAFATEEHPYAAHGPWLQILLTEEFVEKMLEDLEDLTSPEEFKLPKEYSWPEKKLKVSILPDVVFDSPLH

[5] = target: B1; assay: co-IP; as a4, but lysates of Tbx3 null (Tbx3 delta-fl/delta-fl, ko) E10.5 embryos; Kif7-Gli3 co-precipitate compared with control (wt) embryos by densitometry; settings: partners not purified

- fold more co-precipitated in Tbx3 mutants than in controls [1]: 3.3 fold
Molecule: Gli3 repressor form (Gli3R), endogenous mouse protein (from UniProt Q61602 1-1583)

- band intensity ratio of control to mutant [1]: 0.25
- fold more co-precipitated in controls than in Tbx3 mutants [2]: > 9 fold
Molecule: Gli3 repressor form (Gli3R), endogenous mouse protein (from UniProt Q61602 1-1583) (domain or fragment)

Molecule: B1
- band intensity ratio of control to mutant [3]: 0.1

- fold more co-precipitated in controls than in Tbx3 mutants [4]: 4.6 fold
- band intensity ratio of control to mutant [5]: 0.1
B2: full length Gli3 (Gli3FL), endogenous mouse protein (natural protein, mouse (endogenous in E10.5 embryos), UniProt Q61602 1-1583, looked up)
chain: MEAQAHSSTATERKKAENSIGKCPTRTDVSEKAVASSTTSNEDESPGQIYHRERRNAITMQPQSVQGLNKISEEPSTSSDERASLIKKEIHGSLPHLAEPSLPYRGTVFAMDPRNGYMEPHYHPPHLFPAFHPPVPIDARHHEGRYHYDPSPIPPLHVPSALSSSPTYPDLPFIRISPHRNPTAASESPFSPPHPYINPYMDYIRSLHSSPSLSMISAARGLSPTDAPHAGVSPAEYYHQMALLTGQRSPYADILPSAATAGAGAIHMEYLHAMDSTRFPSPRLSARPSRKRTLSISPLSDHSFDLQTMIRTSPNSLVTILNNSRSSSSASGSYGHLSASAISPALSFTYPSAPVSLHMHQQILSRQQSLGSAFGHSPPLIHPAPTFPTQRPIPGIPTVLNPVQVSSGPSESSQSKPTSESAVSSTGDPMHNKRSKIKPDEDLPSPGSRGQQEQPEGTTLVKEEADKDESKQEPEVIYETNCHWEGCTREFDTQDQLVHHINNDHIHGEKKEFVCRWLDCSREQKPFKAQYMLVVHMRRHTGEKPHKCTFEGCTKAYSRLENLKTHLRSHTGEKPYVCEHEGCNKAFSNASDRAKHQNRTHSNEKPYVCKIPGCTKRYTDPSSLRKHVKTVHGPEAHVTKKQRGDMHPRPPPPRDSGSHSQSRSPGRPTQGAFGEQKELSNTTSKREECLQVKTVKAEKPMTSQPSPGGQSSCSSQQSPISNYSNSGLELPLTDGGSVADLSAIDETPIMDSTISTATTALALQARRNPAGTKWMEHIKLERLKQVNGMFPRLNPILPSKAPAVSPLIGNGTQSNNNYSSGGPGTLLPSRSDLSGVDFTVLNTLNRRDSNTSTISSAYLSSRRSSGISPCFSSRRSSEASQAEGRPQNVSVADSYDPISTDASRRSSEASQGDGLPSLLSLTPVQQYRLKAKYAAATGGPPPTPLPHMERLSLKTKMALLGEGRDSGVTLPPVHPPRRCSDGGGHTYRGRHLMPHDALANSVRRASDPVRTVSENMSLARVQRFSSLNSFNPPNLPPSVEKRSLVLQNYTRQESSQPRYFQASPCPPSITENVALEALTMDADANLNDEDLLPDDVVQYLNSQNQTGYGQQLQSGISEDSKVAHEPEDLDLAGLPDSHVGQEYPALEQPCSEGSKTDLPIQWNEVSSGTSDLSSSKLKCGQQRPSAQQPRGFGLYNNMVVHPHNLWKVGTGPAGGYQTLGENSSTYNGPEHFAIHSGDGLGTNGNTFHEQPFKTQQYGSQLNRQPLTSSALDHACGTGIQGSKLKGNSLQENGGLLDFSLSVAPNELAGNTVNGMQTQDQMGQGYIAHQLLSGSMQHQGPSRPGQQVLGQVGATSHINIYQGTESCLPGTQDNSSQPSSMAAIRGYQPCASYGGNRRQAMPRGNLTLQQGQLSDMSQSSRVNSIKMEAQGQSQQLCSTVQNYSGQFYDQTMGFSQQDRKAGSFSLSDANCLLQGNGTENSELLSPGANQVTSTVDSFESHDLEGVQIDFDAIIDDGDHTSLMSGALSPSIIQNLSHSSSRLTTPRASLPFPSLSMGTTNMAIGDMSSLLTSLAEESKFLAVMQ
notes: Gli3 transcription factor, mouse, the unprocessed full length form (Gli3FL band on anti-Gli3 immunoblots); also called GliFL; source: endogenous, E10.5 mouse forelimb bud lysate or E10.5 whole embryo lysate (control or Tbx3 null)
